± gives the standard deviation of the averaged measurements.
Tested on: ATP
Experiment: switch fluorescence ratio, 500 uM ATP over buffer (Cy3 cluster intensity, sum of 5 cycles each) (fold (ratio)); higher = stronger signal-on switching upon ATP binding; sequences stand for … in TCGTCGGCAGCGTCAGATGTGTATAAGAGACAGTTTTTTTTTTTTTTTTTTTTTTTTT…TC
Conditions: aptamer strand: ATP DNA aptamer (quencher-CACCTGGGGGAGTATTGCGGAGGAAGG + anchor), 100 nM annealed; ATP concentration: 500 uM
In short: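 Values give the fluorescence ratio for each switch-domain sequence, averaged from per-cluster ratios of summed target-cycle to summed buffer-cycle Cy3 intensity. The Cy3-labelled switching-strand clusters sat on a modified Illumina MiSeq flow-cell, were annealed to 100 nM quencher-labelled ATP aptamer, and were imaged in selection buffer, then after 15 min with 500 uM ATP at 22 °C. Five cycles ran with NaOH stripping and re-annealing between them, and clusters outside 100-1000 RFU were excluded.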
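Also: ATP exposure 15 min at 22 °C before imaging.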

| Sequence | switch fluorescence ratio |
| --- | --- |
| CCTGGGGTTT | 1.09 ± 0.15 |
| CCTGGGTACC | 1.039 ± 0.0072 |
| CCTGGGTCTA | 1.03 ± 0.023 |
| CCTGGGTTAT | 1.02 ± 0.011 |
| CCTGGTTTTG | 1.04 ± 0.028 |
| CCTGGTTTTT | 1.12 ± 0.15 |
| CCTGTAAAGA | 1.02 ± 0.019 |
| CCTGTAGTCT | 1.04 ± 0.039 |
| CCTGTAGTTG | 1.04 ± 0.037 |
| CCTGTATCTT | 1.03 ± 0.018 |
| CCTGTCAGGC | 1.04 ± 0.026 |
| CCTGTCATCC | 1.17 ± 0.023 |
| CCTGTGATAT | 1.3 ± 0.031 |
| CCTGTGCAGG | 1.11 ± 0.02 |
| CCTGTGGATC | 1.05 ± 0.042 |
| CCTGTTACTT | 0.97 ± 0.04 |
| CCTGTTTTAC | 1.24 ± 0.045 |
| CCTTAAGTGT | 1.04 ± 0.041 |
| CCTTAATCTT | 0.987 ± 0.026 |
| CCTTACATCG | 1.12 ± 0.044 |
| CCTTACCTGT | 1.07 ± 0.065 |
| CCTTAGATTA | 1.01 ± 0.031 |
| CCTTATCAGG | 1.04 ± 0.02 |

| Sequence | switch fluorescence ratio |
| --- | --- |
| CCTTCACCGT | 2.21 ± 0.14 |
| CCTTCAGCGT | 1.73 ± 0.086 |
| CCTTCCTTGT | 2.06 ± 0.031 |
| CCTTCGGAGT | 3.99 ± 2.3 |
| CCTTCTTTTT | 1.06 ± 0.12 |
| CCTTGCTGTG | 1.06 ± 0.039 |
| CCTTGTACTG | 1.07 ± 0.042 |
| CCTTGTATTT | 1.01 ± 0.018 |
| CCTTGTCGG | 1.07 ± 0.083 |
| CCTTGTGTTG | 1.01 ± 0.017 |
| CCTTTGGGCA | 1.05 ± 0.023 |
| CCTTTGGGTC | 0.98 ± 0.014 |
| CCTTTTCGTG | 1.003 ± 0.0043 |
| CCTTTTGAAC | 1.04 ± 0.028 |
| CCTTTTTCAC | 1.03 ± 0.032 |
| CCTTTTTGGG | 0.9831 ± 0.0032 |
| CGAAACGGGG | 0.983 ± 0.042 |
| CGAAACTCTG | 1 ± 0.03 |
| CGAAACTTGA | 1.02 ± 0.038 |
| CGAAAGAGAG | 0.9911 ± 0.0022 |
| CGAAAGGGTT | 0.9983 ± 0.0072 |
| CGAAATGGCG | 1.053 ± 0.0038 |
| CGAACGGTGG | 0.998 ± 0.056 |

| Sequence | switch fluorescence ratio |
| --- | --- |
| CGAACGGTTT | 0.989 ± 0.016 |
| CGAACTCCTG | 1.05 ± 0.014 |
| CGAACTCGGA | 1.012 ± 0.0076 |
| CGAAGAGGGA | 0.9864 ± 0.0081 |
| CGAAGAGGTT | 0.98936 ± 0.00044 |
| CGAAGCTAGG | 2.16 ± 0.21 |
| CGAAGCTCTG | 1.09 ± 0.013 |
| CGAAGGGAAT | 1.03 ± 0.033 |
| CGAAGGGTGT | 0.999 ± 0.024 |
| CGAAGGTTTC | 1.034 ± 0.0023 |
| CGAATAAGCG | 0.995 ± 0.023 |
| CGAATACATA | 1.1 ± 0.011 |
| CGAATAGGCT | 1.006 ± 0.0029 |
| CGAATGGCCC | 1 ± 0.012 |
| CGAATGGGGG | 1 ± 0.029 |
| CGAATTCAGG | 1.012 ± 0.0068 |
| CGAATTGTTT | 0.962 ± 0.03 |
| CGAATTTACC | 1.19 ± 0.15 |
| CGACAAGAAC | 2.94 ± 0.18 |
| CGACAGATGT | 1.01 ± 0.018 |
| CGACAGGATG | 1.01 ± 0.033 |
| CGACATACGA | 1.56 ± 0.033 |
| CGACGAACGA | 1.54 ± 0.07 |

| Sequence | switch fluorescence ratio |
| --- | --- |
| CGACGAGGGG | 1 ± 0.03 |
| CGACGATACG | 0.991 ± 0.022 |
| CGACGGATTT | 1.12 ± 0.029 |
| CGACGGCTGG | 1.01 ± 0.07 |
| CGACGGGCGG | 1.02 ± 0.032 |
| CGACGTGGCG | 0.981 ± 0.064 |
| CGACGTTGGT | 1.08 ± 0.043 |
| CGACTAGCGA | 1.4082 ± 0.00063 |
| CGACTGGGAG | 0.981 ± 0.026 |
| CGAGACAGGT | 1.04 ± 0.0098 |
| CGAGACGTAT | 1.09 ± 0.042 |
| CGAGAGACCG | 0.951 ± 0.013 |
| CGAGAGGCGA | 1.05 ± 0.027 |
| CGAGATAAGG | 1 ± 0.014 |
| CGAGATATTG | 0.9827 ± 0.0019 |
| CGAGCACGGG | 1.47 ± 0.053 |
| CGAGCCCTTA | 0.986 ± 0.059 |
| CGAGCTTATC | 1.2 ± 0.056 |
| CGAGCTTCGT | 1.01 ± 0.034 |
| CGAGGACTTC | 1.02 ± 0.012 |
| CGAGGCAGCA | 1.199 ± 0.009 |
| CGAGGCCTCG | 0.994 ± 0.038 |
| CGAGGCGGAG | 1.01 ± 0.028 |

| Sequence | switch fluorescence ratio |
| --- | --- |
| CGAGGGAGTT | 0.986 ± 0.044 |
| CGAGGGGA | 1.018 ± 0.0082 |
| CGAGGGGATG | 1.006 ± 0.0088 |
| CGAGGGGCAC | 0.997 ± 0.013 |
| CGAGGGGCCA | 1 ± 0.027 |
| CGAGGGGGAT | 1.19 ± 0.27 |
| CGAGGGGGGC | 1.02 ± 0.092 |
| CGAGGGGGGG | 1.01 ± 0.025 |
| CGAGGGGGTT | 1 ± 0.02 |
| CGAGGGGTCC | 0.975 ± 0.043 |
| CGAGGGTGCA | 1.04 ± 0.021 |
| CGAGGTAGAG | 1.01 ± 0.049 |
| CGAGGTGAAG | 0.9922 ± 0.0049 |
| CGAGTAGCGG | 1.01 ± 0.036 |
| CGAGTAGTGC | 1.12 ± 0.033 |
| CGAGTATGCA | 0.981 ± 0.024 |
| CGAGTCTGCC | 1.04 ± 0.075 |
| CGAGTTAAAT | 1.01 ± 0.037 |
| CGAGTTGGAG | 1.01 ± 0.025 |
| CGAGTTTGGG | 1.001 ± 0.0031 |
| CGATAAAGGT | 1.016 ± 0.0095 |
| CGATAACCTT | 1.48 ± 0.48 |
| CGATAATGTG | 0.9727 ± 0.0063 |

| Sequence | switch fluorescence ratio |
| --- | --- |
| CGATATCAAT | 1.061 ± 0.0062 |
| CGATATGGGC | 1.02 ± 0.014 |
| CGATATGTCG | 1.41 ± 0.33 |
| CGATATTGGC | 0.985 ± 0.083 |
| CGATCAGTTG | 0.9853 ± 0.004 |
| CGATCCGGGA | 0.9982 ± 0.006 |
| CGATCGAGGA | 0.991 ± 0.036 |
| CGATCGGTCA | 1.0097 ± 0.00057 |
| CGATGAGAGT | 1.03 ± 0.064 |
| CGATGAGGTA | 0.968 ± 0.06 |
| CGATGGTTGA | 1 ± 0.042 |
| CGATGTAGTC | 1.05 ± 0.022 |
| CGATGTGTAC | 2.71 ± 0.17 |
| CGATGTTTGG | 0.988 ± 0.025 |
| CGATTAGGTA | 1 ± 0.041 |
| CGATTATCGG | 0.999 ± 0.014 |
| CGATTCACTT | 1.02 ± 0.021 |
| CGATTGCATT | 1.27 ± 0.045 |
| CGATTGCTGG | 0.989 ± 0.069 |
| CGATTGTATG | 0.992 ± 0.054 |
| CGATTTACTT | 1.02 ± 0.04 |
| CGATTTGAGG | 0.9967 ± 0.0079 |
| CGATTTGGAG | 0.995 ± 0.012 |

| Sequence | switch fluorescence ratio |
| --- | --- |
| CGATTTGGGG | 0.968 ± 0.017 |
| CGATTTTAGG | 1 ± 0.035 |
| CGATTTTGGG | 0.9844 ± 0.0047 |
| CGATTTTTTC | 0.9774 ± 0.003 |
| CGCAAACGCA | 3.62 ± 0.17 |
| CGCAAAGAGG | 1.18 ± 0.11 |
| CGCACCGGGT | 1.05 ± 0.015 |
| CGCACCGGTG | 1.02 ± 0.032 |
| CGCACGATGC | 2.89 ± 0.32 |
| CGCACTTCTG | 1.02 ± 0.024 |
| CGCAGCGATG | 2.66 ± 0.11 |
| CGCAGGGGGG | 1.09 ± 0.034 |
| CGCAGGGTTA | 1.02 ± 0.052 |
| CGCAGGTTAG | 1.11 ± 0.025 |
| CGCAGTTATT | 1.08 ± 0.014 |
| CGCAGTTGGA | 1.03 ± 0.039 |
| CGCATAAATA | 1.16 ± 0.034 |
| CGCATACGGT | 4.124 ± 0.029 |
| CGCATATGTA | 1.08 ± 0.033 |
